36 substances from the Human Domainome abundance scans (Beltran et al. 2025) can be followed below.

± gives the uncertainty stated by the source.

The nature of the data set: abundance fitness (aPCA) (normalised: wild type 0, dead -1); higher = more abundant; growth selection in yeast, the domain comes from the species named. Particulars: Homo sapiens.
“DnaJ homolog subfamily B member 1 E62F, P25685” registered an abundance fitness of -0.519 ± 0.12.
The value for “DnaJ homolog subfamily B member 1 E62G, P25685” was -0.272 ± 0.15; that for “DnaJ homolog subfamily B member 1 E62H, P25685” was -0.351 ± 0.081.
The value for “DnaJ homolog subfamily B member 1 E62I, P25685” was -0.378 ± 0.14; that for “DnaJ homolog subfamily B member 1 E62M, P25685” was -0.32 ± 0.11.
The value for “DnaJ homolog subfamily B member 1 E62N, P25685” was -0.567 ± 0.28; that for “DnaJ homolog subfamily B member 1 E62P, P25685” was -0.134 ± 0.079.
In the case of “DnaJ homolog subfamily B member 1 E62Q, P25685”, the abundance fitness is -0.353 ± 0.12.
Take “DnaJ homolog subfamily B member 1 E62R, P25685”: the abundance fitness was -0.344 ± 0.095.
On to “DnaJ homolog subfamily B member 1 E62S, P25685”, for which the abundance fitness was -0.212 ± 0.077.
“DnaJ homolog subfamily B member 1 E62V, P25685” displayed an abundance fitness of -0.218 ± 0.12.
With “DnaJ homolog subfamily B member 1 E62W, P25685”, the abundance fitness was -0.626 ± 0.096.
The value for “DnaJ homolog subfamily B member 1 E62Y, P25685” was -0.552 ± 0.22.
The value for “DnaJ homolog subfamily B member 1 F45A, P25685” was -0.21 ± 0.076.
The value for “DnaJ homolog subfamily B member 1 F45C, P25685” was -0.351 ± 0.12.
In turn, “DnaJ homolog subfamily B member 1 F45D, P25685” returned an abundance fitness of -0.352 ± 0.076.
The value for “DnaJ homolog subfamily B member 1 F45E, P25685” was -0.277 ± 0.095.
Regarding “DnaJ homolog subfamily B member 1 F45G, P25685”, the abundance fitness is -0.247 ± 0.089.
The value for “DnaJ homolog subfamily B member 1 F45H, P25685” was -0.096 ± 0.17.
The value for “DnaJ homolog subfamily B member 1 F45I, P25685” was -0.158 ± 0.07; that for “DnaJ homolog subfamily B member 1 F45K, P25685” was -0.444 ± 0.16.
The value for “DnaJ homolog subfamily B member 1 F45L, P25685” was -0.21 ± 0.055; that for “DnaJ homolog subfamily B member 1 F45M, P25685” was -0.305 ± 0.092.
As to “DnaJ homolog subfamily B member 1 F45N, P25685”, the abundance fitness is -0.221 ± 0.1.
“DnaJ homolog subfamily B member 1 F45P, P25685”: the abundance fitness was -0.508 ± 0.072.
The substance “DnaJ homolog subfamily B member 1 F45Q, P25685” yielded an abundance fitness of -0.211 ± 0.11.
The value for “DnaJ homolog subfamily B member 1 F45R, P25685” was -0.185 ± 0.062; that for “DnaJ homolog subfamily B member 1 F45S, P25685” was -0.143 ± 0.085.
In the case of “DnaJ homolog subfamily B member 1 F45T, P25685”, the abundance fitness is -0.281 ± 0.075.
The value for “DnaJ homolog subfamily B member 1 F45V, P25685” was -0.306 ± 0.061.
The value for “DnaJ homolog subfamily B member 1 F45W, P25685” was 0 ± 0.099; that for “DnaJ homolog subfamily B member 1 F45Y, P25685” was -0.178 ± 0.17; that for “DnaJ homolog subfamily B member 1 F64A, P25685” was -0.361 ± 0.3.
“DnaJ homolog subfamily B member 1 F64Q, P25685” showed an abundance fitness of -0.344 ± 0.28.
The value for “DnaJ homolog subfamily B member 1 F64S, P25685” was -0.109 ± 0.23.
“DnaJ homolog subfamily B member 1 F64Y, P25685” had an abundance fitness of 0.009 ± 0.48.
